Source: US20250186614A1, “COMPACT DRUG RESPONSIVE DOMAINS FOR REGULATION OF FUNCTION/ABUNDANCE AND DELIVERY OF POLYPEPTIDE PAYLOADS” (OBSIDIAN THERAPEUTICS, INC., priority 2022, published 2025)

Tested on: Jurkat cells
Experiment: Tacrolimus dose response of FKBP13-AcGFP-mCherry constructs stably transduced into Jurkat cells, GFP MFI by flow cytometry
Assay type: cell-based
Set-up: Basal: unit not given here
How it was run: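 GFP geometric MFI was read by flow cytometry in mCherry+ cells and curve-fitted against tacrolimus dose. Cells were Jurkat E6-1, lentivirus-transduced with FKBP13-AcGFP-mCherry fusion constructs until 10-25% mCherry-positive on day 5 post-transduction.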

[1] = tacrolimus, Jurkat cells stably transduced, Table 6
[2] = tacrolimus, Jurkat cells, Table 13

B1: FKBP-149: FKBP13 DRD Q72R, Q84E, A117H, T64Q, L94G; SEQ ID NO: 99 (protein)
chain: HCPIKSRKGDVLHMHYTGKLEDGQEFDSSLPRNQPFVFSLGTGEVIKGWDQGLGGMCEGEKRKLVIPSELGYGERGHPPKIPGGATLVFEVELLKIER
modifications: Description of sequence: FKBP13-AcGFP-mCherry Fusion; Construct Name: FKBP-149; FKBP13 DRD in Construct : FKBP13 (mutated to match FKBP12 active site Q72R Q84E A117H) (DRD T64Q L94G)
- Fold Change [1]: 39.28

B2: FKBP-268: FKBP13 DRD-AcGFP construct of Table 10 (protein)
chain: HRPIKSRKGDVLHMHYTGKLEDGTEFDSSLPRNQPFVFSLGTGERIKGWDQGLLGMCEGEKRKLVIPSELGYGERGWPPKIPGGATLVFEVELLKIER
modifications: Description of sequence: Construct Name: FKBP-268; Mutation(s): Q72R Q84E A117W V85R DRD C42R
- FC (tacrolimus, FIGS. 31 and 32): 18
- Fold Change [2]: 18

B3: FKBP-264: FKBP13 DRD-AcGFP construct of Table 10 (protein)
chain: HCPIKSRKGDVLHMHYTGKLEDGTEFDSSLPRNQPFVFWLGTGRRIKGWDQGLLGMCEGEKRKLVIPSELGYGERGWPPKIPGGATLVFEVELLKIER
modifications: Description of sequence: Construct Name: FKBP-264; Mutation(s): Q72R S79W Q84R A117W DRD V85R
- Basal (FIG. 45, BR1 (Biorep 1)): 127
- FC (FIG. 45, BR1 (Biorep 1)): 37.06
- At 10 uM (FIG. 45, BR1 (Biorep 1)): 4706
- Fold Change [2]: 37.08

B4: FKBP-269 (protein)
chain: HCPIKSRKGDVLQMHYTGKLEDGTEFDSSLPRNQPFVFSLGTGERIKGWDQGLLGMCEGEKRKLVIPSELGYGERGWPPKIPGGATLVFEVELLKIER
modifications: Description of sequence: Construct Name: FKBP-269; Mutation(s): Q72R Q84E A117W V85R DRD H53Q
- Fold Change [2]: 44

B5: FKBP-273: FKBP13 DRD-AcGFP construct of Table 10 (protein)
chain: HCPIKSRKGDVLHMHYTGKLEDGTEFDSSLPRNQPFVFSLGTGERIKGWDQGLLGMCEGEKRKLVIPSELGYGGRGWPPKIPGGATLVFEVELLKIER
modifications: Description of sequence: Construct Name: FKBP-273; Mutation(s): Q72R Q84E A117W V85R DRD E114G
- FC (tacrolimus, FIGS. 33 and 34): 36
- Fold Change [2]: 36

B6: FKBP-119: FKBP13 DRD Q72R, Q84E, A117W, K101W; SEQ ID NO: 69 (protein)
chain: HCPIKSRKGDVLHMHYTGKLEDGTEFDSSLPRNQPFVFSLGTGEVIKGWDQGLLGMCEGEWRKLVIPSELGYGERGWPPKIPGGATLVFEVELLKIER
modifications: Description of sequence: FKBP13-AcGFP-mCherry Fusion; Construct Name: FKBP-119; FKBP13 DRD in Construct : FKBP13 (mutated to match FKBP12 active site Q72R Q84E A117W) (DRD K101W )
- Fold Change [1]: 31.91

B7: FKBP-120: FKBP13 DRD Q72R, Q84E, A117H, K101W; SEQ ID NO: 70 (protein)
chain: HCPIKSRKGDVLHMHYTGKLEDGTEFDSSLPRNQPFVFSLGTGEVIKGWDQGLLGMCEGEWRKLVIPSELGYGERGHPPKIPGGATLVFEVELLKIER
modifications: Description of sequence: FKBP13-AcGFP-mCherry Fusion; Construct Name: FKBP-120; FKBP13 DRD in Construct : FKBP13 (mutated to match FKBP12 active site Q72R Q84E A117H) (DRD K101W)
- Fold Change [1]: 30.53

B8: FKBP-260: FKBP13 DRD-AcGFP construct of Table 10 (protein)
chain: HCPIKSRKGDVLHMHYTGKLEDGTEFDSSLPRNQPFVFSLGTGERIKGWDQGLLGMCEGENRKLVIPSELGYGERGWPPKIPGGATLVFEVELLKIER
modifications: Description of sequence: Construct Name: FKBP-260; Mutation(s): Q72R Q84E A117W V85R DRD K101N
- FC (tacrolimus, FIGS. 31 and 32): 51
- Fold Change [2]: 51

B9: FKBP-266 (protein)
chain: HCPIKSRKGLVLHMHYTGKLEDGTEFDSSLPRNQPFVFSLGTGERIKGWDQGLLGMCEGEKRKLVIPSELGYGERGWPPKIPGGATLVFEVELLKIER
modifications: Description of sequence: Construct Name: FKBP-266; Mutation(s): Q72R Q84E A117W V85R DRD D50L
- Fold Change [2]: 60

B10: FKBP-270: FKBP13 DRD-AcGFP construct of Table 10 (protein)
chain: HCPIKSRKGDVMHMHYTGKLEDGTEFDSSLPRNQPFVFSLGTGERIKGWDQGLLGMCEGEKRKLVIPSELGYGERGWPPKIPGGATLVFEVELLKIER
modifications: Description of sequence: Construct Name: FKBP-270; Mutation(s): Q72R Q84E A117W V85R DRD L52M
- FC (tacrolimus, FIGS. 33 and 34): 38
- Fold Change [2]: 38

B11: FKBP-274: FKBP13 DRD-AcGFP construct of Table 10 (protein)
chain: HCPIKSRKGDVLHMHYTGKLEDGTEFDSSLPRNQPFVFSLGTGERIKGWDQGLLGMCEGEKRKLVIPSKLGYGERGWPPKIPGGATLVFEVELLKIER
modifications: Description of sequence: Construct Name: FKBP-274; Mutation(s): Q72R Q84E A117W V85R DRD E109K
- FC (tacrolimus, FIGS. 33 and 34): 34
- Fold Change [2]: 34

B12: FKBP-271: FKBP13 DRD-AcGFP construct of Table 10 (protein)
chain: HCPIKSRKGDVLHMHYTGKLEDGTEFDSSLPRNQPFVFSLGTGERIKGWDQGLLGMCEGEKRRLVIPSELGYGERGWPPKIPGGATLVFEVELLKIER
modifications: Description of sequence: Construct Name: FKBP-271; Mutation(s): Q72R Q84E A117W V85R DRD K103R
- FC (tacrolimus, FIGS. 33 and 34): 19
- Fold Change [2]: 19

B13: FKBP-150: FKBP13 DRD Q72R, Q84E, A117H, E61G, G124P; SEQ ID NO: 100 (protein)
chain: HCPIKSRKGDVLHMHYTGKLGDGTEFDSSLPRNQPFVFSLGTGEVIKGWDQGLLGMCEGEKRKLVIPSELGYGERGHPPKIPGPATLVFEVELLKIER
modifications: Description of sequence: FKBP13-AcGFP-mCherry Fusion; Construct Name: FKBP-150; FKBP13 DRD in Construct : FKBP13 (mutated to match FKBP12 active site Q72R Q84E A117H) (DRD E61G G124P)
- Fold Change [1]: 21.15

B14: FKBP-118: FKBP13 DRD Q72R, Q84E, A117H, V85R; SEQ ID NO: 68 (protein)
chain: HCPIKSRKGDVLHMHYTGKLEDGTEFDSSLPRNQPFVFSLGTGERIKGWDQGLLGMCEGEKRKLVIPSELGYGERGHPPKIPGGATLVFEVELLKIER
modifications: Description of sequence: FKBP13-AcGFP-mCherry Fusion; Construct Name: FKBP-118; FKBP13 DRD in Construct : FKBP13 (mutated to match FKBP12 active site Q72R Q84E A117H) (DRD V85R)
- Fold Change [1]: 12.95

B15: FKBP-267 (protein)
chain: HCPIKSRKGDVLHMHYTGKLEDGTEFDSSLPRNQPFVFSLGTGERIKGWDQGLLGWCEGEKRKLVIPSELGYGERGWPPKIPGGATLVFEVELLKIER
modifications: Description of sequence: Construct Name: FKBP-267; Mutation(s): Q72R Q84E A117W V85R DRD M96W
- Fold Change [2]: 67

B16: FKBP-265: FKBP13 DRD-AcGFP construct of Table 10 (protein)
chain: HCPIKSRKGDVLHMHYTGKLEDGTEFDSSLPRNQPFVFSLGWGRRIKGWDQGLLGMCEGEKRKLVIPSELGYGERGWPPKIPGGATLVFEVELLKIER
modifications: Description of sequence: Construct Name: FKBP-265; Mutation(s): Q72R T82W Q84R A117W DRD V85R
- Basal (FIG. 45, BR1 (Biorep 1)): 78
- FC (FIG. 45, BR1 (Biorep 1)): 53.72
- At 10 uM (FIG. 45, BR1 (Biorep 1)): 4190
- Basal (FIG. 45, BR2 (Biorep 2)): 102
- FC (FIG. 45, BR2 (Biorep 2)): 41.58
- At 10 uM (FIG. 45, BR2 (Biorep 2)): 4241
- FC (tacrolimus, FIGS. 31 and 32): 58
- Fold Change [2]: 53.72

B17: FKBP-262: FKBP13 DRD-AcGFP construct of Table 10 (protein)
chain: HCRIKSRKGDVLHMHYTGKLEDGTEFDSSLPRNQPFVFSLGTGERIKGWDQGLLGMCEGEKRKLVIPSELGYGERGWPPKIPGGATLVFEVELLYIER
modifications: Description of sequence: Construct Name: FKBP-262; Mutation(s): Q72R Q84E A117W V85R DRD P43R K135Y
- Basal (FIG. 49, BR1 (Biorep 1)): 59.5
- FC (FIG. 49, BR1 (Biorep 1)): 66.64
- At 10 uM (FIG. 49, BR1 (Biorep 1)): 3965
- Basal (FIG. 49, BR2 (Biorep 2)): 73.7
- FC (FIG. 49, BR2 (Biorep 2)): 52.21
- At 10 uM (FIG. 49, BR2 (Biorep 2)): 3848
- FC (tacrolimus, FIGS. 31 and 32): 73
- Fold Change [2]: 73
